Test results as given in US20210269480A1 (published 2021).
*1 amine or outer side, *2 acyl side, *3 side chain or, on linkers, in order; H or OH if unused. Bridges are numbered along the chain shown (N, C = ends). Primed or numbered codes have the meaning given here. Where no end group is shown, it is not given here. [ ]: non-standard residue; d: D form. TATA = O=C(CC[*:1])N1CN(C(=O)CC[*:2])CN(C(=O)CC[*:3])C1; 1Nal = N[C@@H](Cc1cccc2ccccc12)C(=O)O; PABC = O=C(OCc1ccc(N[*:1])cc1)[*:2]; Glutaryl = O=C(CCCC(=O)[*:2])[*:1]; Cya = N[C@@H](CS(=O)(=O)O)C(=O)O; Hyp = O=C(O)[C@@H]1C[C@@H](O)CN1; dCya = N[C@H](CS(=O)(=O)O)C(=O)O; hArg = N=C(N)NCCCC[C@H](N)C(=O)O; Cit = NC(=O)NCCC[C@H](N)C(=O)O; MMAE = monomethyl auristatin E; PABC′ = p-aminobenzylcarbamate; βAla = NCCC(=O)O; Sar = CNCC(=O)O

T1: human Nectin-4 (human, UniProt Q96NY8 32-349)
T1 construct: a Gly32-Ser349 FLAG construct is described only under the SPR assay; also called PVRL4
T1 sequence (looked up): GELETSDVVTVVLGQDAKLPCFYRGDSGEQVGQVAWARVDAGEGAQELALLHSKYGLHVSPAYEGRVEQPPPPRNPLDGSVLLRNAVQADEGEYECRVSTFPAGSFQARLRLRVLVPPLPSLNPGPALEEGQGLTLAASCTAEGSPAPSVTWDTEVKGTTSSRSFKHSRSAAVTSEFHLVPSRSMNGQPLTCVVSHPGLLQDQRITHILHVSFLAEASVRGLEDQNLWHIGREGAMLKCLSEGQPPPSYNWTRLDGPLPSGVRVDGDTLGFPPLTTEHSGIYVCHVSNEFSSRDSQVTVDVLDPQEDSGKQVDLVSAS

T2: human Nectin-4 (human), Q96NY8
T2 chain: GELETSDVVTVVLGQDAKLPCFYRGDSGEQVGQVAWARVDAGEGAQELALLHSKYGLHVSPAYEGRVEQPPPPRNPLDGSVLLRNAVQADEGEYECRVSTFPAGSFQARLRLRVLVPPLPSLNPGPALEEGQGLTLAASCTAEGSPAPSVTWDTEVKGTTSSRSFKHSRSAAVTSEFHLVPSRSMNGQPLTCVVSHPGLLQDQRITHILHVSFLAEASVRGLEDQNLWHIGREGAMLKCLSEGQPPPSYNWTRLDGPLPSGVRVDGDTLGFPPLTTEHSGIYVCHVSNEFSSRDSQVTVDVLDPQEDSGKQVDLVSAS

T3: Human Nectin-4 (residues Gly32-Ser349) with C-terminal FLAG tag, biotinylated (human, UniProt Q96NY8 32-349, randomly biotinylated with EZ-Link Sulfo-NHS-LC-LC-Biotin)
T3 construct: range 32-349; Captured through biotin on a streptavidin CM5 chip in the SPR assay; also called PVRL4; not shown: C-terminal FLAG tag
T3 sequence (looked up): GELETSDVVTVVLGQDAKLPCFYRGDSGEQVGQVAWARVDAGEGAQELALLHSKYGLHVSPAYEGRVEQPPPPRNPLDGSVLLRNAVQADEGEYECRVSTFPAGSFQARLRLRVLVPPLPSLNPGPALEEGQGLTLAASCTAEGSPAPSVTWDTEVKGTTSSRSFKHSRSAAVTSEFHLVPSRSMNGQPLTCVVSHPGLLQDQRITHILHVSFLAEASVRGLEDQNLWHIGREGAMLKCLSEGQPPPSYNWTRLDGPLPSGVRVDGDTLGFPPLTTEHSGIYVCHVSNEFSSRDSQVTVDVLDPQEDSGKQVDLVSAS


What was measured:
[1] = target: Human Nectin-4 (residues Gly32-Ser349) with C-terminal FLAG tag, biotinylated (human) (UniProt Q96NY8); assay: SPR (Biacore), biotinylated human Nectin-4 on streptavidin chip
human Nectin-4 = target: T1, human Nectin-4; assay: FP competition, tracer SEQ ID NO 217
Protocol: Peptides were diluted to an appropriate concentration in assay buffer as described in the direct binding assay with a maximum of 5% DMSO, then serially diluted 1 in 2. […] Measurements were conducted as for the direct binding assay, however the gain was determined prior to the first measurement. Data analysis was in Systat Sigmaplot version 12.0 where the mP values were fit to a user defined cubic equation to generate a Ki value: […]

[2] = target: T2, human Nectin-4 (human), Q96NY8; assay: FP competition, tracer SEQ ID NO 217; conditions: remark: other sources report otherwise
[3] = target: T3, Human Nectin-4 (residues Gly32-Ser349) …; assay: SPR (Biacore), biotinylated human Nectin-4 on streptavidin chip

Binder | Kd [1] [nM] | also measured
{Ac-βAla}-[Sar][Sar][Sar][Sar][Sar][Sar][Sar][Sar][Sar][Sar]CP[1Nal][dD]CM[hArg][Cya]WSTP[Hyp]WC (linker 11-15-25 via TATA (inferred)) [BCY8278] | 1.92 | –
Ac-CP[1Nal][dD]CM[hArg][Cya]WSTP[Hyp]WC (linker 1-5-15 via TATA (inferred)) [BCY8161] | 0.94 | Ki (human Nectin-4): 4 nM
ACPFGCMKNWAWPIWCTNK (linker 2-6-16 via TATA) [BCY7424] | – | Ki [2]: 562 nM
{MMAE-PABC′-Cit-Val-Glutaryl-βAla}-[Sar][Sar][Sar][Sar][Sar][Sar][Sar][Sar][Sar][Sar]CP[1Nal][dCya]CM[hArg][Cya]WSTP[Hyp]WC (linker 11-15-25 via TATA (inferred)) [BCY8784] | 0.662 | –
{MMAE-PABC-Cit-Val-Glutaryl-βAla}-[Sar][Sar][Sar][Sar][Sar][Sar][Sar][Sar][Sar][Sar]CP[1Nal][dD]CM[hArg]DWSTP[Hyp]WC (linker 11-15-25 via TATA, also called BT8009; MMAE-PABC-Cit-Val-Glutaryl-BCY8234) [BCY8245] | – | Kd [3]: 5.12 nM
{Ac-βAla}-[Sar][Sar][Sar][Sar][Sar][Sar][Sar][Sar][Sar][Sar]CP[1Nal][dCya]CM[hArg][Cya]WSTP[Hyp]WC (linker 11-15-25 via TATA (inferred)) [BCY8280] | 2 | –
{MMAE-PABC′-Cit-Val-Glutaryl-βAla}-[Sar][Sar][Sar][Sar][Sar][Sar][Sar][Sar][Sar][Sar]CPF[dD]CM[hArg]NWSTPIWC (linker 11-15-25 via TATA, also called MMAE-PABC-Cit-Val-Glutaryl-BCY7814) [BCY7825] | – | Kd [3]: 11.6 nM
